Test results published in paper doi:10.1101/2021.12.04.471219 (bioRxiv, 2021).
Where no end group is shown, it is not given here.

What was measured:
Assay in all cases: MST
[1] = biological target: MLLT4 PDZ domain (residues 961-1056) (human) (UniProt P55196)
[2] = biological target: T1, ZO-1 PDZ2 domain (residues 184-264) (human, UniProt Q07157 184-264)
T1 sequence: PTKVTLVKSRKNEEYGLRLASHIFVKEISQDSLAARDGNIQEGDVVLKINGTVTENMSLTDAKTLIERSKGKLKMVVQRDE

[3] = biological target: T2, MPP5 PDZ domain (residues 238-336) (human, UniProt Q8N3R9 238-336)
T2 sequence: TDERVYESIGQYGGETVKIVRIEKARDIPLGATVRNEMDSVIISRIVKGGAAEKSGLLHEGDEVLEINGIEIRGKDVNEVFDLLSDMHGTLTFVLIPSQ

[4] = biological target: PARD3 PDZ3 domain (residues 582-685) (human, UniProt Q8TEW0 582-685)
[5] = biological target: T3, LNX2 PDZ2 domain (residues 334-426) (human, UniProt Q8N448 334-426)
T3 sequence: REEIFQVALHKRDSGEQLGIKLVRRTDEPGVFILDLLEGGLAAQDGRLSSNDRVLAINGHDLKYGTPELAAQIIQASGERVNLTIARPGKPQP

Chain of PARD3 PDZ3 domain (residues 582-685) (Q8TEW0 582-685): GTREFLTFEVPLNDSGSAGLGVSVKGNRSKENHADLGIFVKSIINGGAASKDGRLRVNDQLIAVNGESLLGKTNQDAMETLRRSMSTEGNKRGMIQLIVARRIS

B1: C-terminal SARS-CoV-2-E PBM P71L mutant peptide (12-mer, beta variant B.1.351) (peptide)
peptide: NLNSSRVLDLLV
modifications: not fully specified
- Kd [1]: > 1000 µM
- Kd [2]: 133 µM
- binding result [3]: binds
- Kd [4]: > 1000 µM
- Kd [5]: 47 µM
